Results from patent US20230132049A1 (Genmab, published 2023).

What was measured:
human CD30 [1] = target: T1, human CD30 (human, UniProt P28908 19-595); test: cell-based or functional assay
T1 sequence: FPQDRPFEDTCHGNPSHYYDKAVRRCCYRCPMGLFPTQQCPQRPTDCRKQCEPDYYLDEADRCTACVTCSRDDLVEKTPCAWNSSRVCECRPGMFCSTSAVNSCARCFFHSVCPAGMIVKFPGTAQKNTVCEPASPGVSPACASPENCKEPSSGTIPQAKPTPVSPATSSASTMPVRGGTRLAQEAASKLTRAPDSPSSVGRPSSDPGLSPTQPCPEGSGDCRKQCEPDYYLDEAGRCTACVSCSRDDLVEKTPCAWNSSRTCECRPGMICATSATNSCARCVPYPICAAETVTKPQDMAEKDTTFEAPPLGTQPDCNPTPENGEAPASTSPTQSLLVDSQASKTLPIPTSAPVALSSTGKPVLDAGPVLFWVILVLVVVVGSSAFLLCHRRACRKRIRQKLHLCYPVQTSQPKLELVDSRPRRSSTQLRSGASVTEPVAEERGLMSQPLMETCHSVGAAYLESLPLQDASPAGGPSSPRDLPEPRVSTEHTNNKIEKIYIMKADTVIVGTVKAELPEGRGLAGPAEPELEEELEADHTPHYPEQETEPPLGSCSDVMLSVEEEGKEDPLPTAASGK

human CD30 [2] = target: T1, human CD30; test: cell-based or functional assay; remark: listed apart in the source
complement protein C1q = target: T2, complement protein C1q (human, UniProt P02745 23-245; P02746 28-253; P02747 29-245); test: flow cytometry with FITC anti-C1q: C1q from 20% human serum on activated human CD8+ T cells incubated with the antibody
T2 construct: Native C1q in 20% human serum
T2 sequence (P02745 23-245 limits assumed, chain 1 of 3): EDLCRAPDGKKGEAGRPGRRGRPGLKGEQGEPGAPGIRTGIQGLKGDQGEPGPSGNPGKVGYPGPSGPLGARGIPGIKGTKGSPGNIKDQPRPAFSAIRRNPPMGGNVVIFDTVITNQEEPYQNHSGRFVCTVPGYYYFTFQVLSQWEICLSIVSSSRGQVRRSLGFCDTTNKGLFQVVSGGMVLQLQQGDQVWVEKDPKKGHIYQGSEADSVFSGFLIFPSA
T2 sequence (P02746 28-253 limits assumed, chain 2 of 3): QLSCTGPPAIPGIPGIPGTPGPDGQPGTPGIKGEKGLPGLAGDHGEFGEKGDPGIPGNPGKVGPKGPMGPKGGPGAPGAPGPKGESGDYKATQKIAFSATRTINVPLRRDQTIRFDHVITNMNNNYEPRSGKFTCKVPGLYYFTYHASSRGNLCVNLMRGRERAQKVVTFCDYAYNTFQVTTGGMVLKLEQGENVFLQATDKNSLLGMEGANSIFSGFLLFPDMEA
T2 sequence (P02747 29-245 limits assumed, chain 3 of 3): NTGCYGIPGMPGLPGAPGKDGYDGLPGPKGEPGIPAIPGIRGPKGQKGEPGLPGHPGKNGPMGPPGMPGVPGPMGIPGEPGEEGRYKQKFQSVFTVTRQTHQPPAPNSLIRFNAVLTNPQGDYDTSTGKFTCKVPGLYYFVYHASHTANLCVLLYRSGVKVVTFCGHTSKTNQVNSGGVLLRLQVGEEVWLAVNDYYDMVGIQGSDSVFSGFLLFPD
Description: Activated CD8⁺ T cells were seeded in a round-bottom 96-well plate (30,000 cells/well), pelleted, and resuspended in 30 μL assay medium (RPMI-1640 with 25 mM HEPES and L-glutamine, supplemented with 0.1% [w/v] bovine serum albumin fraction V (BSA; Roche, cat. no. 10735086001) and penicillin/streptomycin).
Human serum (20 μL/well; Sanquin, lot 20L15-02), as a source of C1q, was added to a final concentration of 20%. Cells were incubated on ice for 45 min, followed by two washes with cold GMB FACS buffer and incubation with 50 μL fluorescein isothiocyanate (FITC)-conjugated rabbit anti-human C1q (final concentration of 20 μg/mL (DAKO, cat no. F0254); diluted 1:75 in GMB FACS buffer) in the presence or absence of allophycocyanin-conjugated mouse-anti-CD8 (BD Biosciences, cat. no. 555369; diluted 1:50 in GMB FACS buffer) in the dark at 4° C. for 30 min. […] C1q binding to viable cells (as identified by DAPI exclusion) was analyzed by flow cytometry on an iQue3 Screener (Intellicyt Corporation). Data were analyzed using iQue software (Intellicyt Corporation, ForeCyt® Enterprise Client Edition 6.2 [R3], Version 6.2.652).

human CD30 [3] = target: T1, human CD30; test: flow cytometry on HEK293 cells transfected with human CD30

B1: bsG1-huCD3-FEAL×CD30-MDX060-FERR (bispecific antibody, human IgG1, kappa, lambda)
heavy 1: not shown
light 1: not shown
heavy 2: QVQLQQWGAGLLKPSETLSLTCAVYGGSFSAYYWSWIRQPPGKGLEWIGDINHGGGTNYNPSLKSRVTISVDTSKNQFSLKLNSVTAADTAVYYCASLTAYWGQGSLVTVSSASTKGPSVFPLAPSSKSTSGGTAALGCLVKDYFPEPVTVSWNSGALTSGVHTFPAVLQSSGLYSLSSVVTVPSSSLGTQTYICNVNHKPSNTKVDKRVEPKSCDKTHTCPPCPAPEFERGPSVFLFPPKPKDTLMISRTPEVTCVVVDVSHEDPEVKFNWYVDGVEVHNAKTKPREEQYNSTYRVVSVLTVLHQDWLNGKEYKCKVSNKALPAPIEKTISKAKGQPREPQVYTLPPSREEMTKNQVSLTCLVKGFYPSDIAVEWESNGQPENNYKTTPPVLDSDGSFFLYSRLTVDKSRWQQGNVFSCSVMHEALHNHYTQKSLSLSPG
light 2: DIQMTQSPTSLSASVGDRVTITCRASQGISSWLTWYQQKPEKAPKSLIYAASSLQSGVPSRFSGSGSGTDFTLTISSLQPEDFATYYCQQYDSYPITFGQGTRLEIKRTVAAPSVFIFPPSDEQLKSGTASVVCLLNNFYPREAKVQWKVDNALQSGNSQESVTEQDSKDSTYSLSSTLTLSKADYEKHKVYACEVTHQGLSSPVTKSFNRGEC
notes: one arm of each; also called bsG1-huCD3×CD30-MDX060
What does the source list for B1?
Cytotoxicity, Average IC50 (µg/mL), KI-JK cells (human CD30 [1]): 0.0015 µg/mL; Cytotoxicity, Average IC50 (µg/mL), L-428 cells (human CD30 [1]): 0.002 µg/mL; cytotoxicity IC50 (µg/mL) average, Karpas-299 cells (human CD30 [2]): 0.029 µg/mL; cytotoxicity maximum lysis (%) average, Karpas-299 cells (human CD30 [2]): 52.3%; binding result (complement protein C1q): no binding (tested: 30 µg/mL); EC50 (read off the curve) (human CD30 [3]): ~0.09 µg/mL
